From US6602687B1, “DNA encoding human ciliary neurotrophic factor and method for producing the protein encoded thereby” (Regeneron Pharmaceuticals, Inc., priority 1989, dated 2003) come the findings set out here.

Experiment [1] deals with E10 rat ciliary ganglion neurons. Nature of the experiment: Survival and neurite outgrowth of ciliary ganglion neurons with E. coli protein extract. In kind it is cell-based. The protocol:
(§1) In addition, protein extracts were prepared from the same cells lysed by treatment with lysozyme followed by three cycles of freezing and thawing. […] No such activity could be detected in control extracts from the same host cells carrying the plasmid vector without the rCNTF gene.

In experiment [2] the test system is E8 dorsal root ganglion neurons. Nature of the experiment: Survival and neurite outgrowth of dorsal root ganglion neurons / DRG assay with E. coli protein extracts. In kind it is cell-based. Particulars: protein extract of E. coli W3110iqF-/rCNTF-C-1; after 24 and 48 hours in vitro. As to the method: as §1
Human CNTF sequence, engineered to lack intron sequences, has been inserted into the pCP93 vector and used to transform competent E. coli.

The subject of experiment [3] is E8 chick ciliary ganglion neurons. The experiment can be described thus: Survival of dissociated E8 chick ciliary ganglion neurons. It counts as cell-based. Particulars: dissociated, neuron-enriched E8 chick ciliary ganglion cultures. The text has this:
Ciliary neurotrophic factor activity may be evaluated using any CNTF-sensitive in vivo or in vitro system known in the art. For example, and not by way of limitation, in vitro systems have been developed which measure CNTF activity by quantitating 24-hour survival of embryonic (E8) chick ciliary ganglion (CG) neurons in monolayer cultures.
For example, ciliary ganglia may be collected from E8 chick embryos, dissociated (yielding approximately 20,000 cells per ganglion) and then diluted in HEBM medium containing 20 percent horse serum as described in Varon et al. (1979, Brain Res. 173:29-45). About fifty microliters of cell suspension containing neurons (2,000 cells) may then be seeded into microliter dishes and putative CNTF activity may be added. Culture plates may then be maintained at 37° C. in 5% CO2 for 24 hours, after which the cultures may be fixed by the addition of 200 μl 2 per cent glutaraldehyde in HEBM medium, and the number of surviving neurons may be determined visually by direct count under phase contrast microscopy.
Chick embryo ciliary ganglion cultures were created and maintained according to the method set forth in (Hughes et al., 1988, Nature 335 : 70-73).
(§2) Biological activity of recombinant CNTF was assayed on explants of chick embryo dorsal root ganglia (DRG) and dissociated cultures of ciliary ganglion (CG) neurons as described in Lindsay and Rohrer (1985, Devel. Biol 112:30-48). Briefly, DRG were dissected from chick embryos of 10 days incubation (E10) and 5-6 ganglia were explanted in 1 ml of a collagen gel matrix in 35 mm tissue culture dishes. After the gel had set, 1 ml of tissue culture growth medium F14 (Imperial Labs., U.K.) supplemented with 5% heat-inactivated horse serum (GIBCO) was added before adding human CNTF (1-20 l) to a final concentration of 100 pg to 100 ng/ml. CG were dissected from E8 chick embryos and incubated for 30 min in 0.25% trypsin (Worthington) in calcium- and magnesium-free phosphate buffered saline. The ganglia were then washed three times in F14 medium containing 5% horse serum before being dissociated to a single cell suspension by trituration through the bore of a Pasteur pipette. Enrichment for CG neurons was achieved by plating the cell suspension for 3.5 hr in a 60 mm dish, during which non-neuronal cells (fibroblasts and Schwann cells) attached firmly to the plastic while phase-bright neurons remained in suspension. The purified neurons were plated on polyornithine-laminin-coated 35 mm culture dishes at 8,000-10,000 neurons/dish. In explant cultures CNTF activity was determined by assessing the extent of fiber outgrowth in treated cultures compared to controls. Fiber outgrowth was scored on a scale of 0 to 5+, by comparing cultures to photographs of a dose-response of explanted DRG and NGF. In dissociated CG neuron cultures, CNTF activity was determined by counting at 48 hr the percentage of process-bearing neurons in control and CNTF-treated cultures. In all cases results were derived from triplicate cultures.

Experiment [4] concerns chick embryonic spinal motorneurons. Nature of the experiment: Survival of chick embryonic spinal motorneurons in culture. In kind it is cell-based. Also noted: key to Survival: −: not significantly different from control (survival: 8.3 ± 3.8%, mean ± SD, n = 18); ±: about 15-20% (statistically significant from each blank control, p < 0.01); + +: about 35-55%; + ++: about 55-75%. The protocol:
Motorneuron columns were dissected under a stereomicroscope from the lumbar part of the spinal cord of chick embryos on the 6th day of embryonic development and stored in cold calcium and magnesium-free Hanks balanced salt solution supplemented with glucose (4 g/l) (HBSS). The tissues were washed with HBSS and treated with 0.03% trypsin in HBSS at 37° C. for 20 min with gentle shaking, rinsed with cold HBSS and triturated mildly in 3 steps of 8-passage agitation in 1 ml of cold 0.1% soybean trypsin inhibitor (Sigma) in HBSS through a fire-polished siliconized Pasteur pipette. Each supernatant cell suspension was filtered through 50 μm-Nylon mesh, pooled and layered onto 4 ml of cold 6.8% metrizamide (Fluka) in HBSS-25 mM HEPES (pH7.4) in a 12 ml-siliconized conical glass tube. The tube was centrifuged at 400 g for 15 min at 4° C. and the intermediate layer (0.5 ml) was collected into another siliconized tube containing 6.5 ml of cold culture medium (a mixture of glucose (4 g/l)-supplemented Leibovitz's L-15 medium (Gibco), 0.15 M sodium bicarbonate, heat-inactivated and filtered horse serum and penicillin G (10^5 units/ml) at the ratio of 75:15:10:0.1, freshly prepared and buffered with 5% CO2.) After centrifugation at 100×g for 7 min at 4° C., the supernatant was removed and the cells were gently resuspended in culture medium and plated in Greiner 4-well culture dishes (well diameter, 10 mm; C. A. Greiner und Sohne GmbH, Nurtingen, West Germany) at 1000-2000 cells/well. The dishes had been precoated with poly-DL-ornithine (Sigma, 0.5 mg in 0.15 M sodium borate buffer (pH 8.3) overnight at 4° C., rinsed twice with phosphate-buffered saline (PBS) and subsequently coated with laminin (Gibco; 10 μg/ml in the serum-depleted culture medium) and placed in a 5% CO2-incubator until cell plating (5-6 hrs). Cells were incubated at 37° C. in a humidified 5% CO2- and 95% air-incubator. Samples were added one hr after plating and the culture medium changed after 24 hrs and 72 hrs. The initial cell numbers were counted 3 hrs after plating.
In some experiments motor neurons were retrogradely labeled with a fluorescent dye in vivo before cell preparation (U. Dohrman et al., 1986, Dev. Biol. 118:209-221) to identify the motor neuron cell population. A small hole was made in the shell of eggs which had been incubated for 5 days. Small pieces of rhodamine isothiocyanate crystals (Sigma) were inserted at two or three places into each hind limb thigh and the egg hole was sealed with a cellophane tape. The eggs were incubated for another 24 hrs. Some of the operated embryos were then processed for frozen sections after formaldehyde fixation. […] The other embryos were used for cell preparation using the method described above (18.1.1). After 5 hrs in culture cells were rinsed with warm HBSS, fixed with 4% formaldehyde in PBS at room temperature for 20 min, rinsed with PBS and then mounted in glycerol-PBS (1:1) with glass coverslips. Of the total cells approximately 83% were labeled and identified as motorneurons (FIG. 42.) Most of these labeled motorneurons were large cells and the rest were intermediate-size cells. No small cells were labeled. On the other hand, in experiments in which cells were not labeled with a fluorescent dye about 70% of the total cells were large phase-bright cells with round cell somas, about 20% were intermediate-size neurons (most of them may be motorneurons) and about 10% were small immature neurons (they have neuron-like processes with growth cones but have phase-dark semi-flat cell somas). Non-neuronal cells were either not present or accounted for less than 2%. Taken together, one may conclude that at least 83% of the cells are motorneurons while the remainder consists of non-labeled motorneurons, a small number of unidentified intermediate-size neurons and about 10% immature small neurons. […]

The test system of experiment [5] is dorsal root ganglia and/or dissociated ciliary neurons. Nature of the experiment: Biological activity of modified and truncated CNTF proteins (rapid bacterial extracts). It counts as cell-based, chick. The conditions noted are these: soluble protein extracted from induced bacteria hosting each plasmid; compared with full length parental protein. As to the method:
Samples for gel electrophoresis were prepared by resuspending cell pellets from 0.5 ml culture OD590=2 in 0.16 ml lysis buffer (100 mM TrisHCl, 10% glycerol, 4% sodium dodecyl sulfate, 1 mM dithiothreitol, 0.5 mg/ml bromophenol blue, pH 6.8) and boiling for 5 minutes.
as §2
Biological activity was assayed on dorsal root ganglia and/or dissociated ciliary neurons was determined as described in section 12.1.6. Soluble protein was extracted from induced bacteria hosting each plasmid by the “rapid” protein extraction method described in section 12.1.3.

In experiment [6] the test system is GABAergic neurons (hippocampal cultures). The experiment can be described thus: Effect of other neurotrophic factors on GABAergic hippocampal neurons in culture. In kind it is cell-based, rat. The protocol:
Hippocampi were dissected from E18-19 rat embryos of Sprague-Dawley rats, and collected in F10 medium. The tissues were minced, rinsed twice with F10 medium (Gibco) and trypsinized with 0.25% trypsin (Gibco) for 20 minutes at 37° C. Trypsin was inactivated by the addition of a serum-containing medium composed of minimal essential medium (MEM) supplemented with fetal calf serum (FCS, 10%), glutamine (2 mM), penicillin (25 U/ml) and streptomycin (25 ug/ml). Dissociated cells obtained by gentle trituration were collected and centrifuged at low speed (500 rpm) for 30 seconds. The centrifugation was repeated twice, and the cell pellets were then resuspended in serum-containing medium. The cells were then plated onto 6 mm wells or 35 mm dishes that were coated with polyornithine (10 ug/ml) and laminin (10 ug/ml). In most of the experiments, the cells were plated at a low density of approximately 71,000 cells/cm^2. Five to six hours following the plating of cells, medium was changed to a serum-free medium containing 1% N3 and penicillin-streptomycin (25 units/ml and 25 ug/ml, respectively), at which time CNTF was added. Medium was changed every three to four days, with re-addition of the factor. […]

B1: recombinant rat CNTF: rat ciliary neurotrophic factor expressed in E. coli (protein, UniProt P20294 1-200, looked up)
Ciliary neurotrophic factor: MAFAEQTPLTLHRRDLCSRSIWLARKIRSDLTALMESYVKHQGLNKNINLDSVDGVPVASTDRWSEMTEAERLQENLQAYRTFQGMLTKLLEDQRVHFTPTEGDFHQAIHTLMLQVSAFAYQLEELMVLLEQKIPENEADGMPATVGDGGLFEKKLWGLKVLQELSQWTVRSIHDLRVISSHQMGISALESHYGAKDKQM
Consider B1, for which the “amount of rCNTF at which maximal activity was seen” value in experiment [1] (ciliary and dorsal root ganglion neuron cultures) is “less than 1 nanogram”. The “survival and neurite outgrowth of E10 rat ciliary ganglion neurons” value in experiment [1] (protein extract of E. coli W3110iqF-/rCNTF-C-1, after 24 and 48 hours in vitro) is “up to 50%”. In addition, in experiment [2], the “survival and neurite outgrowth of E8 dorsal root ganglion neurons” value was “approximately 30%”. In addition, the “lowest concentration at which activity was detectable” value in experiment [3] was 2 pg/mL. For the same molecule, in experiment [4] (recombinant rat CNTF, 5 ng/ml), the “motorneurons alive after 3 days in culture” value was “about 70%” and the “motorneurons alive after 6 days in culture” value is “about 60%”.

B2: pRPN65: rCNTF terminated immediately after the 165th codon (protein, UniProt P20294 1-165, looked up, fragment)
chain: MAFAEQTPLTLHRRDLCSRSIWLARKIRSDLTALMESYVKHQGLNKNINLDSVDGVPVASTDRWSEMTEAERLQENLQAYRTFQGMLTKLLEDQRVHFTPTEGDFHQAIHTLMLQVSAFAYQLEELMVLLEQKIPENEADGMPATVGDGGLFEKKLWGLKVLQEL
Consider B2, for which, in experiment [5], the biological activity result was “inactivated”.

B3: BDNF: brain derived neurotrophic factor (porcine in Table VI) (protein, UniProt P14082 134-252, looked up)
Neurotrophic factor BDNF: HSDPARRGELSVCDSISEWVTAADKKTAVDMSGGTVTVLEKVPVSKGQLKQYFYETKCNPMGYTKEGCRGIDKRHWNSQCRTTQSYVRALTMDSKKRIGWRFIRIDTSCVCTLTIKRGR
modifications: Neurotrophic factor BDNF
Turning to B3, the “effect on / survival of GABAergic neurons” value in experiment [6] was “does not seem to promote the survival”. Also, in experiment [4] (after 3 days in culture, one concentration per molecule, Table VI, CNTF rat, rec.), the Survival entry is “−”. Moreover, the “survival effect on motoneurons” value in experiment [4] (supramaximal concentrations, NT-3 produced by transfected Cos-cells) is on record as “no discernable effect”.

B4: pRPN59: hCNTF interrupted after the 185th codon, followed by 10 additional unrelated amino acids (protein, UniProt P26441 1-185, looked up, fragment)
chain: MAFTEHSPLTPHRRDLCSRSIWLARKIRSDLTALTESYVKHQGLNKNINLDSADGMPVASTDQWSELTEAERLQENLQAYRTFHVLLARLLEDQQVHFTPTEGDFHQAIHTLLLQVAAFAYQIEELMILLEYKIPRNEADGMPINVGDGGLFEKKLWGLKVLQELSQWTVRSIHDLRFISSHQTG
modifications: plus 10 unrelated C-terminal residues
Take B4: the biological activity result in experiment [5] is given as “as active as the full length protein”.

B5: pRPN109: hCNTF with serine in place of cysteine at amino acid 17, encoded in plasmid pRPN109 (protein, UniProt P26441 1-200, looked up, variant C17S)
Ciliary neurotrophic factor: MAFTEHSPLTPHRRDLSSRSIWLARKIRSDLTALTESYVKHQGLNKNINLDSADGMPVASTDQWSELTEAERLQENLQAYRTFHVLLARLLEDQQVHFTPTEGDFHQAIHTLLLQVAAFAYQIEELMILLEYKIPRNEADGMPINVGDGGLFEKKLWGLKVLQELSQWTVRSIHDLRFISSHQTGIPARGSHYIANNKKM
As to B5, the biological activity result in experiment [5] was “as active as the full length protein”.

B6: pRPN112: hCNTF interrupted after the 145th codon plus one leucine; lacks 55 carboxyl-terminal residues (protein, UniProt P26441 1-145, looked up, fragment)
chain: MAFTEHSPLTPHRRDLCSRSIWLARKIRSDLTALTESYVKHQGLNKNINLDSADGMPVASTDQWSELTEAERLQENLQAYRTFHVLLARLLEDQQVHFTPTEGDFHQAIHTLLLQVAAFAYQIEELMILLEYKIPRNEADGMPIN
modifications: plus one C-terminal leucine
notes: hCNTF interrupted after the 145th codon plus one leucine; lacks 55 carboxyl-terminal residues
In the case of B6, in experiment [5], the biological activity entry was “inactive”.
